Reference: patent US20240262917A1, “ANTIBODIES AGAINST ALK AND METHODS OF USE THEREOF” (Dana-Farber Cancer Institute, Inc., priority 2021, published 2024)

B1: 5H3: murine monoclonal IgG1 anti-ALK antibody; VH SEQ ID NO: 13, VL SEQ ID NO: 14 (antibody)
heavy: MEWSWVFLFLLSVIAGVQSQVQLQQSGAELVRPGASVTLSCKASGYTFTDYEMHWVKQTPVHGLEWIGAIDPETGGSAYNQKFKAKAILTADRSSSTAYMELRSLTSEDSAVYYCTRTRYYGSSPAMDYWGQGTSVTVSSAKTTPPSVYPLAPGSAAQTNSMVTLGCLVKGYFPEPVTVTWNSGSLSSGVHTFPAVLQSDLYTLSSSVTVPSS
light: MSSAQFLGLLLLCFQGTRCDIQMTQTTSSLSASLGDRVTISCSASQGIGNYLNWYQQKPDGTVKLLIYYTSSLHSGVPSRFSGSGSGTDYSLTISNLEPEDIATYYCQQYSKLPYTFGGGTKLEIKRADAAPTVSIFPPSSEQLTSGGASVVCFLNNFYPKDINVKWKIDGSERQNGVLNSWTDQDSKDSTYSMSSTLTLTK
B2: andecaliximab: selective MMP-9 antibody (Gilead) (antibody, chains of the INN, looked up, V domains shown)
VH: QVQLQESGPGLVKPSETLSLTCTVSGFSLLSYGVHWVRQPPGKGLEWLGVIWTGGTTNYNSALMSRFTISKDDSKNTVYLKMNSLKTEDTAIYYCARYYYGMDYWGQGTLVTVSS
VL: DIQMTQSPSSLSASVGDRVTITCKASQDVRNTVAWYQQKPGKAPKLLIYSSSYRNTGVPDRFSGSGSGTDFTLTISSLQAEDVAVYYCQQHYITPYTFGGGTKVEIK

Columns and labels:
[1] = tested on: ALK; assay: Western blot analysis of ALK in cell lysates and conditioned media; format: binding, human
Source text: (§1) (A) Western blot analysis of ALK in Kelly and SHEP neuroblastoma cells overexpressing GFP and mutated ALK using the mAb-7 and 8G7 anti-ALK antibodies. The mAb-7 antibody was developed at the Vigny laboratory (INSERM, Unité 706/Université Pierre et Marie Curie, Paris F-75005, France) (Moog-Lutz et al, 2005; PMID: 15886198) and obtained through a Materials Transfer Agreement. (B) Western blot analysis of ALK expression in various non-neuroblastoma cell lines: H1373 (human […]), HeLa (cervical cancer), NIH-3T3 (transformed mouse fibroblast cells) using 8G7 and C26G7 (rabbit monoclonal C-terminal anti-ALK antibody; Cell Signaling Technology; Cat #3333; RRID:AB_836862) anti-ALK antibodies.
(§2) The three HPLC-purified monoclonal antibodies (5H3, 7F7 and 8G7) all of the IgG1 subtype, were tested for their ability to bind to ALK in neuroblastoma cells expressing ALK. Both cell lysates and supernatants from cells grown with and without serum (to increase the expression of ALK) were tested by western blotting. […] (A) Western blot analysis of the indicated hybridoma clones in neuroblastoma cell lines expressing WT (NGP) and mutated (SHSY5Y, Kelly) ALK. NIH3T3 cells were used as controls. (B) Western blot analysis of conditioned media from NGP neuroblastoma and 293T cells engineered to express the WT ALK receptor, with the three ALK mAbs showing binding with the shed ALK extracellular domain. […]
Cell lysates were prepared in NP-40 buffer (Invitrogen) containing complete protease inhibitor (Roche), phosphatase inhibitor (Roche) and phenylmethylsulfonyl fluoride (PMSF). Lysates were incubated on ice for 20 min and centrifuged at 16,000 g for 15 min at 4° C. Protein concentrations of the supernatants were determined with the DC protein assay kit (Bio-Rad). Protein samples were denatured using NuPAGE LDS sample buffer (Invitrogen) and NuPAGE sample reducing agent (Invitrogen). Proteins were then separated on precast 4-12% Bis-Tris gels (Invitrogen) and transferred to nitrocellulose membranes (Bio-Rad). […]

[2] = molecular target: T1, ALK (Homo sapiens, UniProt Q9UM73); assay: Screening and subcloning of hybridomas (ELISA, FCM, functional assays); format: binding; parameters: The human ALK extracellular domain (19-682 aa) fused to the mouse Fc gene; made in house; host or cells: 293T cells; settings: after subcloning by limiting dilution
Procedure: HAT-selected fused cells were distributed in 96 well plates and the hybridoma supernatants were subjected to several rounds of screening. Initial screening was performed using ELISA against human Fc to test antigen binding with the ALK ECD-human Fc fusion protein. […] These were rescreened by FACS against Ba/F3 and neuroblastoma (NB) cells expressing ALK. From this screen, 22 positive hybridoma supernatants were tested in an antigen-binding capture ELISA assay and 11 were subsequently selected for further analysis. (A) Binding of hybridoma supernatants using an antigen-binding capture assay. The plate was coated with goat-anti-mouse IgG Fc, incubated with hybridoma supernatants, followed by ALK-HRP and visualized using an HRP substrate. (B) Binding of selected hybridoma supernatants to a human Fc antibody using ELISA screening. Plates were coated with the ALK ECD-human Fc fusion protein (ALK-hFc) together with an irrelevant hFc protein and visualized using an anti-mouse kappa light chain antibody. Only the supernatants with the highest binding are shown.
Supernatants from individual clones were then screened by ELISA and FACS analysis for ALK binding. Shown here is the viability of NGP neuroblastoma cells (expressing ALK) in the presence of anti-mouse IgG antibody in hybridoma clone supernatants. […]
Target sequence in this assay (Q9UM73 19-682): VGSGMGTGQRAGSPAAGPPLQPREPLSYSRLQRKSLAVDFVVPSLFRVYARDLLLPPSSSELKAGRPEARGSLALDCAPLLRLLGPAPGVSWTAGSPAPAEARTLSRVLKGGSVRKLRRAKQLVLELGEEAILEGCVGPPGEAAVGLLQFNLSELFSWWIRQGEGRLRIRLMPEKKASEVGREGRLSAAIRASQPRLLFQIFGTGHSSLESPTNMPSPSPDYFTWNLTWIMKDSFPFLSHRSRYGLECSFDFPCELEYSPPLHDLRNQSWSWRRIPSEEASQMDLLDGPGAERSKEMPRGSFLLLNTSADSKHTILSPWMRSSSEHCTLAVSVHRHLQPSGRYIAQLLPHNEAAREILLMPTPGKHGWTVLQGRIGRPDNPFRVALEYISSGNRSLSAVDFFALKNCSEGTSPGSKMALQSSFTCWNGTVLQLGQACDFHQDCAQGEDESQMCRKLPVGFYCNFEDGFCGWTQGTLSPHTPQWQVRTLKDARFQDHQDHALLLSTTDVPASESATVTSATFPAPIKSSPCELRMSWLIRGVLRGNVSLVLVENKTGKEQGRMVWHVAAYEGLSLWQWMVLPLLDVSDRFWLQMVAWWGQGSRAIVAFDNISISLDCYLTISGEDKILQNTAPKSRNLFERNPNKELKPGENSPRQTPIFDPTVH

[3] = molecular target: T2, full-length ALK receptor (Homo sapiens, UniProt Q9UM73); assay: Immunoprecipitation of ALK from neuroblastoma cell lysates; format: binding; settings: immunoblotting with commercial anti-ALK C-terminal antibody
T2 construct: endogenous in cells
Source text: Cell lysates from the indicated neuroblastoma cell lines were subjected to immunoprecipitation (IP) using 8G7 and subsequently to immunoblotting analysis using the commercial anti-ALK C-terminal antibody.

[4] = molecular target: T1, ALK; assay: Western blot analysis of ALK in cell lysates and conditioned media; format: binding; parameters: endogenous in cells; host or cells: human neuroblastoma lines (NGP, SH-SY5Y, Kelly and others)
Source text: as §1, §2
Cell lysates were prepared in NP-40 buffer (Invitrogen) containing complete protease inhibitor (Roche), phosphatase inhibitor (Roche) and phenylmethylsulfonyl fluoride (PMSF). Lysates were incubated on ice for 20 min and centrifuged at 16,000 g for 15 min at 4° C. Protein concentrations of the supernatants were determined with the DC protein assay kit (Bio-Rad). Protein samples were denatured using NuPAGE LDS sample buffer (Invitrogen) and NuPAGE sample reducing agent (Invitrogen). Proteins were then separated on precast 4-12% Bis-Tris gels (Invitrogen) and transferred to nitrocellulose membranes (Bio-Rad). After blocking in blocking buffer (5% dry milk in TBS with 0.2% Tween-20), membranes were incubated with the primary antibody overnight at 4 °C, washed three times with TBST buffer, chemiluminescent detection performed with the appropriate secondary antibodies and developed using Genemate Blue ultra-autoradiography film (VWR).

[5] = molecular target: T3, ALK extracellular fragment (Homo sapiens, UniProt Q9UM73); assay: Sandwich ELISA of shed ALK ECD in patient sera; format: binding; settings: sera of patients with ALK-expressing neuroblastoma
T3 construct: conditioned media containing the shed ALK (ALK 1-654) ECD fragment; from tissue; host or cells: serum of neuroblastoma patients
Source text: Detection of the purified ALK-ECD protein using 8G7 (detection) and 7F7 (capture) anti-ALK antibodies by sandwich ELISA. (A) Standard curve showing the gradual increase in signal with increasing concentrations of the ALK-ECD protein in the media of NGP cells that express cleaved ALK. Quantification is shown below. (B) ELISA of the shed ALK ECD protein in sera from patients with neuroblastoma. Ample diluent buffer was used to dilute the serum samples, Media represents Dulbecco's Modified Eagle media in which human embryonic kidney 293T cells were grown, 293T media, conditioned media from 293T cells; ALK ECD 293T media, media collected from 293T cells in which the ALK-ECD-mFc protein was overexpressed.
We developed a sandwich ELISA technique where two ALK antibodies (for example, 5H3 or 7F7) can be used to capture the ALK extracellular fragment (antigen), and another antibody, such as the 8G7 antibody, can be used to detect the captured ALK extracellular fragment-5H3 or 7F7 complex. The different epitope binding sites of these antibodies on the ALK extracellular fragment protein allow for the development of the sandwich ELISA technique for the detection of the cleaved or shed ALK extracellular fragment in patient serum samples (FIG. 18). […]

[6] = molecular target: MMP-9 (Homo sapiens, UniProt P14780); settings: cited from earlier work
Chain of MMP-9 (P14780 94-707): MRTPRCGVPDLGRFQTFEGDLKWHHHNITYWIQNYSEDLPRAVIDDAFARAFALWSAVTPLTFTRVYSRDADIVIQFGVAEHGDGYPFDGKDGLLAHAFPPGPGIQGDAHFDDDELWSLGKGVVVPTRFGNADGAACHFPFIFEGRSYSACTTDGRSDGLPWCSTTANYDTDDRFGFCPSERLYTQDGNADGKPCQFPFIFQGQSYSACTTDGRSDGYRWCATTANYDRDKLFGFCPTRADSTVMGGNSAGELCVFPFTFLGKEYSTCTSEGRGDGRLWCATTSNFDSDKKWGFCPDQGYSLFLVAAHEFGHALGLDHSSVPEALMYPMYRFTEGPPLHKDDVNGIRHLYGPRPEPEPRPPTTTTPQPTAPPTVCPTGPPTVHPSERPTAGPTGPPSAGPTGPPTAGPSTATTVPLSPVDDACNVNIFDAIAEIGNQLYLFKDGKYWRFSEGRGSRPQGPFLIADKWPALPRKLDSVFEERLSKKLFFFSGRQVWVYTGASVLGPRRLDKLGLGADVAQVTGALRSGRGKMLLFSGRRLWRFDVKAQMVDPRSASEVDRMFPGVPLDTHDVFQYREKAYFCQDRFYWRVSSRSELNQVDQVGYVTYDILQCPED

T2 sequence (Q9UM73 19-1620): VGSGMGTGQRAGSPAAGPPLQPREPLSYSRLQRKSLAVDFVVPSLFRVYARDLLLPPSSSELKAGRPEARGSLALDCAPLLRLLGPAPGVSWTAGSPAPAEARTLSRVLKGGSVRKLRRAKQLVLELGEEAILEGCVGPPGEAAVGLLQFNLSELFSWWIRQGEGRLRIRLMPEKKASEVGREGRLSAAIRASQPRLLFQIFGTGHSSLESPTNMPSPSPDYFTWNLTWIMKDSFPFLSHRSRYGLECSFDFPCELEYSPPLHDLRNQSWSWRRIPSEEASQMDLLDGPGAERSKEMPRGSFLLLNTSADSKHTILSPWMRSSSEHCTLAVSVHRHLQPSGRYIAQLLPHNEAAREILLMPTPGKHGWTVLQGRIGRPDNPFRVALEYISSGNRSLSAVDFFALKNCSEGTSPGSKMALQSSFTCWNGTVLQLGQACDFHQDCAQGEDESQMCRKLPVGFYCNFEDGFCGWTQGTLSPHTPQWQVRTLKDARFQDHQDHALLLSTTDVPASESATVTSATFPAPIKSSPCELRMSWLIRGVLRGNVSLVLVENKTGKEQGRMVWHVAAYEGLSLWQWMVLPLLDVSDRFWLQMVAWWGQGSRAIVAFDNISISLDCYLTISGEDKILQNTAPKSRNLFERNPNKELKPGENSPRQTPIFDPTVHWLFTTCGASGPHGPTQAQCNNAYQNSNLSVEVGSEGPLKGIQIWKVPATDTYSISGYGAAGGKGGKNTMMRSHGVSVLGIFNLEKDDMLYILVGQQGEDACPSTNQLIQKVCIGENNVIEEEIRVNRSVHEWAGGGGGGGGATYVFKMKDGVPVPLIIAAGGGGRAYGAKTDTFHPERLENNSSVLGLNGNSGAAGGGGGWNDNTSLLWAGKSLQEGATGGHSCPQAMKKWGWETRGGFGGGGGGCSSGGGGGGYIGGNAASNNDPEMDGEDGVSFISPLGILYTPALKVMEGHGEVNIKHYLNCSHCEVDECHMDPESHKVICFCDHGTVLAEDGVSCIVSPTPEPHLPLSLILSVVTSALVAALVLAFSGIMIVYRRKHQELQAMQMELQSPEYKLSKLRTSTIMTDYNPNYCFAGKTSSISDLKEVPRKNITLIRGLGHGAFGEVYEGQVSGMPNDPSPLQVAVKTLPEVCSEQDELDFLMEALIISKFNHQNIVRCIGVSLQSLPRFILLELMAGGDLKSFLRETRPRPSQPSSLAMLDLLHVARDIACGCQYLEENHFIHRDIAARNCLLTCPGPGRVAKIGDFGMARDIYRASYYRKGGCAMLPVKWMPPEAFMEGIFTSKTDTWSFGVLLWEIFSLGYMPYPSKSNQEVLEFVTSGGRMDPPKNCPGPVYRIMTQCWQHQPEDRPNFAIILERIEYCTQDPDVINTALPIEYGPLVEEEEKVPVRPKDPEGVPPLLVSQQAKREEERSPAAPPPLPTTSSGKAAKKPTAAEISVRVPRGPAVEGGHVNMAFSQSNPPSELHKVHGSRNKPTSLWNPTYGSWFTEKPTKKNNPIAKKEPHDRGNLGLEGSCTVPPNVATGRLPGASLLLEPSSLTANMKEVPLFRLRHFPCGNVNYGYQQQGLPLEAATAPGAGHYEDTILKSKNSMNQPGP
T3 sequence (Q9UM73 19-654): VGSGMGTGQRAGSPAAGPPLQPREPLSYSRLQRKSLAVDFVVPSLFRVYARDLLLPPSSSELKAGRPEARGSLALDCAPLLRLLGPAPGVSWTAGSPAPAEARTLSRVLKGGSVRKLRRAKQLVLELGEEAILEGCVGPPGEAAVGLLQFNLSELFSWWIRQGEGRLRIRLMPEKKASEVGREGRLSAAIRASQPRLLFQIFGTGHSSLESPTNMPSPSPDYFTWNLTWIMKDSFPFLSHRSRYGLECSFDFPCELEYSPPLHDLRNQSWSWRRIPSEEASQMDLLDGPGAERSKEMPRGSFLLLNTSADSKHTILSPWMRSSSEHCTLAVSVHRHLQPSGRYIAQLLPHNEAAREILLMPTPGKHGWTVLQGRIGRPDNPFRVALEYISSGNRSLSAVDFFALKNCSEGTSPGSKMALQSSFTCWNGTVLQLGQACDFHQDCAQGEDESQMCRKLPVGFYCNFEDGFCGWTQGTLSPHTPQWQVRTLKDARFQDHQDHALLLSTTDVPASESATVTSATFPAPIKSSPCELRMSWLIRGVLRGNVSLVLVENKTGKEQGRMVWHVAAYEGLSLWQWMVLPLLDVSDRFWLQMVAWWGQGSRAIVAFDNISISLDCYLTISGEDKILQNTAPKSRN

Row | Molecule | recognition of ALK in immunoblotting assays [1] | ALK specificity of the clone's monoclonal antibody [2] | immunoprecipitation of ALK [3] | ALK protein recognized by western blotting in cell lysates ([4]; cell lysates of neuroblastoma cells expressing ALK) | ALK protein recognized by western blotting in media ([4]; conditioned media of NB cells, shed ECD domain) | recognition of circulating ALK extracellular fragment in sera [5] | clinical activity ([6]; combined with standard chemotherapy, gastric and gastroesophageal junction adenocarcinoma) | target engagement and dose-limiting toxicity ([6]; patients with gastric and gastroesophageal junction adenocarcinoma)
1 | B1 | recognize ALK in immunoblotting assays | high ALK specificity | can immunoprecipitate ALK | recognized a 220 kDa protein in the cell lysates of neuroblastoma cells | an approximately 100 kDa protein in the media | recognize the circulating ALK extracellular fragment in the sera of patients with ALK-expressing neuroblastoma | – | –
2 | B2 | – | – | – | – | – | – | showed activity when combined with standard chemotherapy | achieved target engagement without dose-limiting toxicity
